T1: TNFR1 (Homo sapiens, UniProt P19438)
T1 chain: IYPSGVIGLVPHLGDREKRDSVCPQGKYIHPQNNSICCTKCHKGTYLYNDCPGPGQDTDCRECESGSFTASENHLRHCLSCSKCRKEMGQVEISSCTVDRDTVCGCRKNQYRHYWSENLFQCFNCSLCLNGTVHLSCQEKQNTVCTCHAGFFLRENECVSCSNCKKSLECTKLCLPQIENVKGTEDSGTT


Target: T1, TNFR1
Assay: yeast display SC50

| Binder | apparent Kd (screen) [nM] |
| --- | --- |
| K23T (designed binder) SMEEEVEKAAKEYEKKKKEAIETHLEKLKAKDKEAAERFLKELEEAAKEYAKDEAKTMSEEEAKRRAKKYKEKVLLSELSEEEQKEIKEAEEKLVRTILKYVEEAAK | 0.446 |
| L25W (designed binder) SMEEEVEKAAKEYEKKKKEAIEKHWEKLKAKDKEAAERFLKELEEAAKEYAKDEAKTMSEEEAKRRAKKYKEKVLLSELSEEEQKEIKEAEEKLVRTILKYVEEAAK | 0.446 |
| E26L (designed binder) SMEEEVEKAAKEYEKKKKEAIEKHLLKLKAKDKEAAERFLKELEEAAKEYAKDEAKTMSEEEAKRRAKKYKEKVLLSELSEEEQKEIKEAEEKLVRTILKYVEEAAK | 0.869 |
| E37S (designed binder) SMEEEVEKAAKEYEKKKKEAIEKHLEKLKAKDKEAASRFLKELEEAAKEYAKDEAKTMSEEEAKRRAKKYKEKVLLSELSEEEQKEIKEAEEKLVRTILKYVEEAAK | 0.49 |
| E7A (designed binder) SMEEEVAKAAKEYEKKKKEAIEKHLEKLKAKDKEAAERFLKELEEAAKEYAKDEAKTMSEEEAKRRAKKYKEKVLLSELSEEEQKEIKEAEEKLVRTILKYVEEAAK | 3.63 |
| L40D (designed binder) SMEEEVEKAAKEYEKKKKEAIEKHLEKLKAKDKEAAERFDKELEEAAKEYAKDEAKTMSEEEAKRRAKKYKEKVLLSELSEEEQKEIKEAEEKLVRTILKYVEEAAK | 1.4 |
| A10I (designed binder) SMEEEVEKAIKEYEKKKKEAIEKHLEKLKAKDKEAAERFLKELEEAAKEYAKDEAKTMSEEEAKRRAKKYKEKVLLSELSEEEQKEIKEAEEKLVRTILKYVEEAAK | 0.446 |
| L25H (designed binder) SMEEEVEKAAKEYEKKKKEAIEKHHEKLKAKDKEAAERFLKELEEAAKEYAKDEAKTMSEEEAKRRAKKYKEKVLLSELSEEEQKEIKEAEEKLVRTILKYVEEAAK | 0.49 |
| K48E (designed binder) SMEEEVEKAAKEYEKKKKEAIEKHLEKLKAKDKEAAERFLKELEEAAEEYAKDEAKTMSEEEAKRRAKKYKEKVLLSELSEEEQKEIKEAEEKLVRTILKYVEEAAK | 0.446 |
| F39C (designed binder) SMEEEVEKAAKEYEKKKKEAIEKHLEKLKAKDKEAAERCLKELEEAAKEYAKDEAKTMSEEEAKRRAKKYKEKVLLSELSEEEQKEIKEAEEKLVRTILKYVEEAAK | 5.31 |
| L40N (designed binder) SMEEEVEKAAKEYEKKKKEAIEKHLEKLKAKDKEAAERFNKELEEAAKEYAKDEAKTMSEEEAKRRAKKYKEKVLLSELSEEEQKEIKEAEEKLVRTILKYVEEAAK | 0.539 |
| L28V (designed binder) SMEEEVEKAAKEYEKKKKEAIEKHLEKVKAKDKEAAERFLKELEEAAKEYAKDEAKTMSEEEAKRRAKKYKEKVLLSELSEEEQKEIKEAEEKLVRTILKYVEEAAK | 0.79 |
| Y13C (designed binder) SMEEEVEKAAKECEKKKKEAIEKHLEKLKAKDKEAAERFLKELEEAAKEYAKDEAKTMSEEEAKRRAKKYKEKVLLSELSEEEQKEIKEAEEKLVRTILKYVEEAAK | 1.27 |
| K16E (designed binder) SMEEEVEKAAKEYEKEKKEAIEKHLEKLKAKDKEAAERFLKELEEAAKEYAKDEAKTMSEEEAKRRAKKYKEKVLLSELSEEEQKEIKEAEEKLVRTILKYVEEAAK | 1.54 |
| H24L (designed binder) SMEEEVEKAAKEYEKKKKEAIEKLLEKLKAKDKEAAERFLKELEEAAKEYAKDEAKTMSEEEAKRRAKKYKEKVLLSELSEEEQKEIKEAEEKLVRTILKYVEEAAK | 0.539 |
| K27P (designed binder) SMEEEVEKAAKEYEKKKKEAIEKHLEPLKAKDKEAAERFLKELEEAAKEYAKDEAKTMSEEEAKRRAKKYKEKVLLSELSEEEQKEIKEAEEKLVRTILKYVEEAAK | 2.73 |
| E3K (designed binder) SMKEEVEKAAKEYEKKKKEAIEKHLEKLKAKDKEAAERFLKELEEAAKEYAKDEAKTMSEEEAKRRAKKYKEKVLLSELSEEEQKEIKEAEEKLVRTILKYVEEAAK | 0.653 |

The remaining lines, values ahead:

| apparent Kd (screen) [nM] | Binder |
| --- | --- |
| 10.4 | E49L (designed binder) SMEEEVEKAAKEYEKKKKEAIEKHLEKLKAKDKEAAERFLKELEEAAKLYAKDEAKTMSEEEAKRRAKKYKEKVLLSELSEEEQKEIKEAEEKLVRTILKYVEEAAK |
| 1.86 | E103Y (designed binder) SMEEEVEKAAKEYEKKKKEAIEKHLEKLKAKDKEAAERFLKELEEAAKEYAKDEAKTMSEEEAKRRAKKYKEKVLLSELSEEEQKEIKEAEEKLVRTILKYVYEAAK |
| 5.84 | A106I (designed binder) SMEEEVEKAAKEYEKKKKEAIEKHLEKLKAKDKEAAERFLKELEEAAKEYAKDEAKTMSEEEAKRRAKKYKEKVLLSELSEEEQKEIKEAEEKLVRTILKYVEEAIK |
| 0.539 | E103I (designed binder) SMEEEVEKAAKEYEKKKKEAIEKHLEKLKAKDKEAAERFLKELEEAAKEYAKDEAKTMSEEEAKRRAKKYKEKVLLSELSEEEQKEIKEAEEKLVRTILKYVIEAAK |
| 6.43 | E54S (designed binder) SMEEEVEKAAKEYEKKKKEAIEKHLEKLKAKDKEAAERFLKELEEAAKEYAKDSAKTMSEEEAKRRAKKYKEKVLLSELSEEEQKEIKEAEEKLVRTILKYVEEAAK |
| 0.869 | S77E (designed binder) SMEEEVEKAAKEYEKKKKEAIEKHLEKLKAKDKEAAERFLKELEEAAKEYAKDEAKTMSEEEAKRRAKKYKEKVLLEELSEEEQKEIKEAEEKLVRTILKYVEEAAK |
| 10.4 | E92L (designed binder) SMEEEVEKAAKEYEKKKKEAIEKHLEKLKAKDKEAAERFLKELEEAAKEYAKDEAKTMSEEEAKRRAKKYKEKVLLSELSEEEQKEIKEAELKLVRTILKYVEEAAK |
| 0.593 | K48F (designed binder) SMEEEVEKAAKEYEKKKKEAIEKHLEKLKAKDKEAAERFLKELEEAAFEYAKDEAKTMSEEEAKRRAKKYKEKVLLSELSEEEQKEIKEAEEKLVRTILKYVEEAAK |
| 3 | K56A (designed binder) SMEEEVEKAAKEYEKKKKEAIEKHLEKLKAKDKEAAERFLKELEEAAKEYAKDEAATMSEEEAKRRAKKYKEKVLLSELSEEEQKEIKEAEEKLVRTILKYVEEAAK |
| 2.25 | I87L (designed binder) SMEEEVEKAAKEYEKKKKEAIEKHLEKLKAKDKEAAERFLKELEEAAKEYAKDEAKTMSEEEAKRRAKKYKEKVLLSELSEEEQKELKEAEEKLVRTILKYVEEAAK |
| 12.5 | E86P (designed binder) SMEEEVEKAAKEYEKKKKEAIEKHLEKLKAKDKEAAERFLKELEEAAKEYAKDEAKTMSEEEAKRRAKKYKEKVLLSELSEEEQKPIKEAEEKLVRTILKYVEEAAK |
| 2.73 | S59I (designed binder) SMEEEVEKAAKEYEKKKKEAIEKHLEKLKAKDKEAAERFLKELEEAAKEYAKDEAKTMIEEEAKRRAKKYKEKVLLSELSEEEQKEIKEAEEKLVRTILKYVEEAAK |
| 0.956 | K52V (designed binder) SMEEEVEKAAKEYEKKKKEAIEKHLEKLKAKDKEAAERFLKELEEAAKEYAVDEAKTMSEEEAKRRAKKYKEKVLLSELSEEEQKEIKEAEEKLVRTILKYVEEAAK |
| 0.539 | K85F (designed binder) SMEEEVEKAAKEYEKKKKEAIEKHLEKLKAKDKEAAERFLKELEEAAKEYAKDEAKTMSEEEAKRRAKKYKEKVLLSELSEEEQFEIKEAEEKLVRTILKYVEEAAK |
| 0.405 | E83A (designed binder) SMEEEVEKAAKEYEKKKKEAIEKHLEKLKAKDKEAAERFLKELEEAAKEYAKDEAKTMSEEEAKRRAKKYKEKVLLSELSEEAQKEIKEAEEKLVRTILKYVEEAAK |
| 0.956 | E61T (designed binder) SMEEEVEKAAKEYEKKKKEAIEKHLEKLKAKDKEAAERFLKELEEAAKEYAKDEAKTMSETEAKRRAKKYKEKVLLSELSEEEQKEIKEAEEKLVRTILKYVEEAAK |
| 3 | R96N (designed binder) SMEEEVEKAAKEYEKKKKEAIEKHLEKLKAKDKEAAERFLKELEEAAKEYAKDEAKTMSEEEAKRRAKKYKEKVLLSELSEEEQKEIKEAEEKLVNTILKYVEEAAK |
| 0.446 | K64L (designed binder) SMEEEVEKAAKEYEKKKKEAIEKHLEKLKAKDKEAAERFLKELEEAAKEYAKDEAKTMSEEEALRRAKKYKEKVLLSELSEEEQKEIKEAEEKLVRTILKYVEEAAK |
